Results reported in article PMC9635285.
Where “and” joins values, the source holds several entries; their conditions need not be identical. Identical values can stand only once.

Tests used:
[1] = biological target: Taxol-stabilised microtubules polymerised from porcine brain tubulin (porcine) (UniProt P02550); assay: co-sedimentation
[2] = biological target: subtilisin-digested microtubules (lacking E-hooks) (porcine) (UniProt P02550); assay: co-sedimentation

Chain of UniProt P02550 (P02550 whole entry, looked up): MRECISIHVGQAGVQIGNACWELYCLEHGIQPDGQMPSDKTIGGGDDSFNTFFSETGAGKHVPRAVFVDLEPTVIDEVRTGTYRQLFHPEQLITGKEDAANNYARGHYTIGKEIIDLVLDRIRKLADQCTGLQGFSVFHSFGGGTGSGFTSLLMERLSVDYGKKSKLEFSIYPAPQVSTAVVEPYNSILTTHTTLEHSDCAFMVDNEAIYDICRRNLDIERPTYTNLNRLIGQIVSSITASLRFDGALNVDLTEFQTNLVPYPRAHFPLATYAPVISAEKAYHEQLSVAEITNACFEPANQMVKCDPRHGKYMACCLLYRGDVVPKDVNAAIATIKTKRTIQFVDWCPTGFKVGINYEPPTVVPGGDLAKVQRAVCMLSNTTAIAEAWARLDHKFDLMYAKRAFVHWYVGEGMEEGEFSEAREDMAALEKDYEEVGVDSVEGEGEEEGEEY

Shift to pellet (%) [1]	Shift to pellet (%) [2] [%]	Substance
52.7% and 50.8%	26.7	KLP-18 C-stalk (C-terminal half of the KLP-18 stalk) (domain or fragment)
56.1% and 41.6%		MBP-MESP-1 (natural protein)
